Source: paper PMC11584738

Molecular target: His-GST-TRP (without signal peptide) (Verticillium dahliae strain V991)
Assay: MST

## GST-CTL1 (without signal peptide) (natural protein)
  Kd: 1.79 µM
